Laboratory results taken from paper PMC8567388.

How the values were obtained:
[1] = target: PSD-95 PDZ1 6xHis (human); assay: ITC
[2] = target: PSD-95 PDZ1-2 6xHis (human); assay: ITC

B1: Stargazin_CT (aa 203-323) (domain or fragment)
chain: DRHKQLRATARATDYLQASAITRIPSYRYRYQRRSRSSSRSTEPSHSRDASPVGVKGFNTLPSTEISMYTLSRDPLKAATTPTATYNSDRDNSFLQVHNCIQKDSKDSLHANTANRRTTPV
Kd [1]: 100 µM | Kd [2]: 12 µM
